# Test results from patent publication US20230242902A1, “A HIGHLY ERROR-PRONE […] R[…] FOR TARGETED CONTINUOUS EVOLUTION IN VIVO” (The Regents of the University of California, priority 2017, published 2023).
# Tested on: p1
# Assay: p1 copy number by p1-encoded mKate2 fluorescence
# Type: cell-based, S. cerevisiae
# Details: OR-Y24, measured in triplicate
# How it was run: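 Steps: transform TP-DNAP1 variant into OR-Y24; passage until w.t. p1 displaced; dilute 1:10,000 and grow to saturation in triplicate; measure p1-encoded mKate2 fluorescence; convert to copy number via linear qPCR-based calibration. Four high-copy variants were checked directly by qPCR.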
row,Molecule,Mean fold-increase over w.t. (p1 copy number) [fold]
1,E704G: TP-DNAP1 variant (protein) MDYKDKALNDLRNVYADFDSLPLDFRQILIKDRATLLQKEDVEKKILERQEDAKKYAEYLKQSEIPERISLPNIKRHKGVSISFEETSEDMVLEPRPFIFDGLNIRCFRRETIFSLKNKILNMVKESSSFKNVSRQSVSFMYFKIFNKGKVIASTKSVNIYEDKIDERLEDLCNNFDDVLKKIIDVTYGYESLFVSETYSYVIFYAKSIYFPQPRCVNNWGNNIPNILTFDSFKLFTANKNNVSCIKQCSRFLWQKDFNTLEEMIEYKNGNICIVTPQLHINDVRDIKSFNDIRLYSESPIKTFSVIDNTITYLFYFKEHLGVIFNITKSRHDRRVTKFSPLSKFSDVKNITVCFDIESYFDPEKESNQVNIPFICCASIIYNKVIGNIVDFEGRDCVAQMIEYVVDICGELNISSVELIAHNGGGYDFHYILSSMYNPAAIKNILIRNNSFISFNFAHDGVKFSVKDSYSFLLCSLANASKAFLNEETFKKTDFPHHDLKTADDLYKVYKEWSSVNTEINHVVEKEKLLITSEHIVNFTKNDKSKTLIEWSKDYCRNDVLVLSKVWLEFKNAVEDIFNCELVDQTMTLAGLSYKLFQANMPFDVELRHPNKEDYFNMREALIGGRCISVNGIYKDVLCLDVKSLYPASMAFYDQPYGSFKRVSSRPKDELGIYYVRVTPNRNNKSNFFPIRSHNKITYNNFEGSTYIAWYTNVDIDIGLSEGHNIEYIPFDSYGNIGYSWSKKGKIFEKYIKDVLYKLKIKYEKQNNKVKRNVIKIIMNSLWGKFAQKWVNFEYFIKSEDDIDFESEEAYKIWDTDFMLIKKIKESTYSSKPIQNGVFTLSWARYHMKSIWDAGAKEGAECIYSDTDSIFVHKEHFKKNAKFMLNGLKVPIIGSEVGQLELECEFDKLLCAGKKQYMGFYTYFQDGKPCIKEKKRFKGIPSNYIIPELYAHLLSGADKEAKIQFLKFRREWGSVKGYIENKTVKAT,1.75
2,E704I: TP-DNAP1 variant (protein) MDYKDKALNDLRNVYADFDSLPLDFRQILIKDRATLLQKEDVEKKILERQEDAKKYAEYLKQSEIPERISLPNIKRHKGVSISFEETSEDMVLEPRPFIFDGLNIRCFRRETIFSLKNKILNMVKESSSFKNVSRQSVSFMYFKIFNKGKVIASTKSVNIYEDKIDERLEDLCNNFDDVLKKIIDVTYGYESLFVSETYSYVIFYAKSIYFPQPRCVNNWGNNIPNILTFDSFKLFTANKNNVSCIKQCSRFLWQKDFNTLEEMIEYKNGNICIVTPQLHINDVRDIKSFNDIRLYSESPIKTFSVIDNTITYLFYFKEHLGVIFNITKSRHDRRVTKFSPLSKFSDVKNITVCFDIESYFDPEKESNQVNIPFICCASIIYNKVIGNIVDFEGRDCVAQMIEYVVDICGELNISSVELIAHNGGGYDFHYILSSMYNPAAIKNILIRNNSFISFNFAHDGVKFSVKDSYSFLLCSLANASKAFLNEETFKKTDFPHHDLKTADDLYKVYKEWSSVNTEINHVVEKEKLLITSEHIVNFTKNDKSKTLIEWSKDYCRNDVLVLSKVWLEFKNAVEDIFNCELVDQTMTLAGLSYKLFQANMPFDVELRHPNKEDYFNMREALIGGRCISVNGIYKDVLCLDVKSLYPASMAFYDQPYGSFKRVSSRPKDELGIYYVRVTPNRNNKSNFFPIRSHNKITYNNFEISTYIAWYTNVDIDIGLSEGHNIEYIPFDSYGNIGYSWSKKGKIFEKYIKDVLYKLKIKYEKQNNKVKRNVIKIIMNSLWGKFAQKWVNFEYFIKSEDDIDFESEEAYKIWDTDFMLIKKIKESTYSSKPIQNGVFTLSWARYHMKSIWDAGAKEGAECIYSDTDSIFVHKEHFKKNAKFMLNGLKVPIIGSEVGQLELECEFDKLLCAGKKQYMGFYTYFQDGKPCIKEKKRFKGIPSNYIIPELYAHLLSGADKEAKIQFLKFRREWGSVKGYIENKTVKAT,1.35
3,E704M: TP-DNAP1 variant (protein) MDYKDKALNDLRNVYADFDSLPLDFRQILIKDRATLLQKEDVEKKILERQEDAKKYAEYLKQSEIPERISLPNIKRHKGVSISFEETSEDMVLEPRPFIFDGLNIRCFRRETIFSLKNKILNMVKESSSFKNVSRQSVSFMYFKIFNKGKVIASTKSVNIYEDKIDERLEDLCNNFDDVLKKIIDVTYGYESLFVSETYSYVIFYAKSIYFPQPRCVNNWGNNIPNILTFDSFKLFTANKNNVSCIKQCSRFLWQKDFNTLEEMIEYKNGNICIVTPQLHINDVRDIKSFNDIRLYSESPIKTFSVIDNTITYLFYFKEHLGVIFNITKSRHDRRVTKFSPLSKFSDVKNITVCFDIESYFDPEKESNQVNIPFICCASIIYNKVIGNIVDFEGRDCVAQMIEYVVDICGELNISSVELIAHNGGGYDFHYILSSMYNPAAIKNILIRNNSFISFNFAHDGVKFSVKDSYSFLLCSLANASKAFLNEETFKKTDFPHHDLKTADDLYKVYKEWSSVNTEINHVVEKEKLLITSEHIVNFTKNDKSKTLIEWSKDYCRNDVLVLSKVWLEFKNAVEDIFNCELVDQTMTLAGLSYKLFQANMPFDVELRHPNKEDYFNMREALIGGRCISVNGIYKDVLCLDVKSLYPASMAFYDQPYGSFKRVSSRPKDELGIYYVRVTPNRNNKSNFFPIRSHNKITYNNFEMSTYIAWYTNVDIDIGLSEGHNIEYIPFDSYGNIGYSWSKKGKIFEKYIKDVLYKLKIKYEKQNNKVKRNVIKIIMNSLWGKFAQKWVNFEYFIKSEDDIDFESEEAYKIWDTDFMLIKKIKESTYSSKPIQNGVFTLSWARYHMKSIWDAGAKEGAECIYSDTDSIFVHKEHFKKNAKFMLNGLKVPIIGSEVGQLELECEFDKLLCAGKKQYMGFYTYFQDGKPCIKEKKRFKGIPSNYIIPELYAHLLSGADKEAKIQFLKFRREWGSVKGYIENKTVKAT,2.02
4,E298H: TP-DNAP1 variant (protein) MDYKDKALNDLRNVYADFDSLPLDFRQILIKDRATLLQKEDVEKKILERQEDAKKYAEYLKQSEIPERISLPNIKRHKGVSISFEETSEDMVLEPRPFIFDGLNIRCFRRETIFSLKNKILNMVKESSSFKNVSRQSVSFMYFKIFNKGKVIASTKSVNIYEDKIDERLEDLCNNFDDVLKKIIDVTYGYESLFVSETYSYVIFYAKSIYFPQPRCVNNWGNNIPNILTFDSFKLFTANKNNVSCIKQCSRFLWQKDFNTLEEMIEYKNGNICIVTPQLHINDVRDIKSFNDIRLYSHSPIKTFSVIDNTITYLFYFKEHLGVIFNITKSRHDRRVTKFSPLSKFSDVKNITVCFDIESYFDPEKESNQVNIPFICCASIIYNKVIGNIVDFEGRDCVAQMIEYVVDICGELNISSVELIAHNGGGYDFHYILSSMYNPAAIKNILIRNNSFISFNFAHDGVKFSVKDSYSFLLCSLANASKAFLNEETFKKTDFPHHDLKTADDLYKVYKEWSSVNTEINHVVEKEKLLITSEHIVNFTKNDKSKTLIEWSKDYCRNDVLVLSKVWLEFKNAVEDIFNCELVDQTMTLAGLSYKLFQANMPFDVELRHPNKEDYFNMREALIGGRCISVNGIYKDVLCLDVKSLYPASMAFYDQPYGSFKRVSSRPKDELGIYYVRVTPNRNNKSNFFPIRSHNKITYNNFEESTYIAWYTNVDIDIGLSEGHNIEYIPFDSYGNIGYSWSKKGKIFEKYIKDVLYKLKIKYEKQNNKVKRNVIKIIMNSLWGKFAQKWVNFEYFIKSEDDIDFESEEAYKIWDTDFMLIKKIKESTYSSKPIQNGVFTLSWARYHMKSIWDAGAKEGAECIYSDTDSIFVHKEHFKKNAKFMLNGLKVPIIGSEVGQLELECEFDKLLCAGKKQYMGFYTYFQDGKPCIKEKKRFKGIPSNYIIPELYAHLLSGADKEAKIQFLKFRREWGSVKGYIENKTVKAT,2.57
5,S705R: TP-DNAP1 variant (protein) MDYKDKALNDLRNVYADFDSLPLDFRQILIKDRATLLQKEDVEKKILERQEDAKKYAEYLKQSEIPERISLPNIKRHKGVSISFEETSEDMVLEPRPFIFDGLNIRCFRRETIFSLKNKILNMVKESSSFKNVSRQSVSFMYFKIFNKGKVIASTKSVNIYEDKIDERLEDLCNNFDDVLKKIIDVTYGYESLFVSETYSYVIFYAKSIYFPQPRCVNNWGNNIPNILTFDSFKLFTANKNNVSCIKQCSRFLWQKDFNTLEEMIEYKNGNICIVTPQLHINDVRDIKSFNDIRLYSESPIKTFSVIDNTITYLFYFKEHLGVIFNITKSRHDRRVTKFSPLSKFSDVKNITVCFDIESYFDPEKESNQVNIPFICCASIIYNKVIGNIVDFEGRDCVAQMIEYVVDICGELNISSVELIAHNGGGYDFHYILSSMYNPAAIKNILIRNNSFISFNFAHDGVKFSVKDSYSFLLCSLANASKAFLNEETFKKTDFPHHDLKTADDLYKVYKEWSSVNTEINHVVEKEKLLITSEHIVNFTKNDKSKTLIEWSKDYCRNDVLVLSKVWLEFKNAVEDIFNCELVDQTMTLAGLSYKLFQANMPFDVELRHPNKEDYFNMREALIGGRCISVNGIYKDVLCLDVKSLYPASMAFYDQPYGSFKRVSSRPKDELGIYYVRVTPNRNNKSNFFPIRSHNKITYNNFEERTYIAWYTNVDIDIGLSEGHNIEYIPFDSYGNIGYSWSKKGKIFEKYIKDVLYKLKIKYEKQNNKVKRNVIKIIMNSLWGKFAQKWVNFEYFIKSEDDIDFESEEAYKIWDTDFMLIKKIKESTYSSKPIQNGVFTLSWARYHMKSIWDAGAKEGAECIYSDTDSIFVHKEHFKKNAKFMLNGLKVPIIGSEVGQLELECEFDKLLCAGKKQYMGFYTYFQDGKPCIKEKKRFKGIPSNYIIPELYAHLLSGADKEAKIQFLKFRREWGSVKGYIENKTVKAT,1.84
6,E704K: TP-DNAP1 variant (protein) MDYKDKALNDLRNVYADFDSLPLDFRQILIKDRATLLQKEDVEKKILERQEDAKKYAEYLKQSEIPERISLPNIKRHKGVSISFEETSEDMVLEPRPFIFDGLNIRCFRRETIFSLKNKILNMVKESSSFKNVSRQSVSFMYFKIFNKGKVIASTKSVNIYEDKIDERLEDLCNNFDDVLKKIIDVTYGYESLFVSETYSYVIFYAKSIYFPQPRCVNNWGNNIPNILTFDSFKLFTANKNNVSCIKQCSRFLWQKDFNTLEEMIEYKNGNICIVTPQLHINDVRDIKSFNDIRLYSESPIKTFSVIDNTITYLFYFKEHLGVIFNITKSRHDRRVTKFSPLSKFSDVKNITVCFDIESYFDPEKESNQVNIPFICCASIIYNKVIGNIVDFEGRDCVAQMIEYVVDICGELNISSVELIAHNGGGYDFHYILSSMYNPAAIKNILIRNNSFISFNFAHDGVKFSVKDSYSFLLCSLANASKAFLNEETFKKTDFPHHDLKTADDLYKVYKEWSSVNTEINHVVEKEKLLITSEHIVNFTKNDKSKTLIEWSKDYCRNDVLVLSKVWLEFKNAVEDIFNCELVDQTMTLAGLSYKLFQANMPFDVELRHPNKEDYFNMREALIGGRCISVNGIYKDVLCLDVKSLYPASMAFYDQPYGSFKRVSSRPKDELGIYYVRVTPNRNNKSNFFPIRSHNKITYNNFEKSTYIAWYTNVDIDIGLSEGHNIEYIPFDSYGNIGYSWSKKGKIFEKYIKDVLYKLKIKYEKQNNKVKRNVIKIIMNSLWGKFAQKWVNFEYFIKSEDDIDFESEEAYKIWDTDFMLIKKIKESTYSSKPIQNGVFTLSWARYHMKSIWDAGAKEGAECIYSDTDSIFVHKEHFKKNAKFMLNGLKVPIIGSEVGQLELECEFDKLLCAGKKQYMGFYTYFQDGKPCIKEKKRFKGIPSNYIIPELYAHLLSGADKEAKIQFLKFRREWGSVKGYIENKTVKAT,1.8
